The values below come from the RNAGym collection of RNA variant scans (doi:10.7554/elife.80360).

B1: HDV Ribozyme (parent)
chain: GGCCGGCAUGGUCCCAGCCUCCUCGCUGGCGCCGGCUGGGCAACAUUCCGAGGGGACCGUCCCCUCGGUAAUGGCGAAUGGGACCCA

The variants in the data set derive from B1. Description: self-cleavage, relative activity (ratio to wild type); higher = more cleavage; co-transcriptional.
As to C4U C48U, the self-cleavage is 0.931.

With C4U G54U, the self-cleavage is 0.789.

With C4U G54A, the self-cleavage was 0.791.

Regarding G5A G31A, the self-cleavage was determined as 0. The result for C4G C19U reads 0.0779; that for G5C G81A, 0.104. With C4A U69C, the self-cleavage was determined as 0.277. As for C4G G68C, the self-cleavage came to 0.475.

Take C4G G68U: the self-cleavage was determined as 0.227.

Consider G5A C36G, for which the self-cleavage turned out to be 0. The result for C4A C13G reads 0.0692.

For C4U G81A, the self-cleavage turned out to be 0.136. The result for C4U G81U reads 0.0723; that for G5A A78G, 0.178; that for G5A A78C, 0.106. C4G G73A: the self-cleavage was determined as 0.156. Regarding C4U U37C, the self-cleavage is 0.772. The result for C4G C15G reads 0.308; that for C4G C24U, 0.193. With G5C C85U the figure was 0.277; with G5C C48G, 0.0755; with G5C G82A, 0.123. The result for C4U C14G reads 0.369; that for G5U A70G, 0.375. Turning to G5A G10U, the self-cleavage was 0.188. With G5C U65A the figure was 0.246. With C4U A51G the figure was 0.467; with C4U A51U, 0.85; with C4A G73A, 0.

Regarding C4A G73C, the self-cleavage came out at 0.0426.

For the variant C4G G52C, the self-cleavage was 0.383. C4G G52A: the self-cleavage was 0.47. With C4G G52U the figure was 0.215. The result for C4G C7G reads 0.0875; that for C4G C7A, 0.

As for C4A A70U, the self-cleavage worked out at 0.252. With C4A A70G, the self-cleavage stood at 0.189. With C4A A42G the figure was 0.0875; with C4A A16C, 0.0339; with C4A A16G, 0.344. For G5C C58A, the self-cleavage came out at 0.162. The result for G5U C22A reads 0.0415.

On to G5A G50U, for which the self-cleavage came to 0.143.

G5C G53C: the self-cleavage was 0.237.

As to C4A G17C, the self-cleavage came out at 0.0386. In the case of C4U C18U, the self-cleavage came to 0.323. The result for C4U G80A reads 0.242; that for C4G A77U, 0.0354. As to C4G A77C, the self-cleavage was 0.

As for C4G G17U, the self-cleavage was 0. The result for C4G C85G reads 0.332. With C4A U37C the figure was 0.415; with C4G U65C, 0.18; with C4A C85U, 0.381. In the case of C4A C85A, the self-cleavage is 0.346. The result for C4U A43C reads 0.578. With G5C G17A the figure was 0.0852; with G5C G17U, 0; with C4G G67C, 0.374. The result for C4U G52C reads 0.776.

In the case of C4U A45U, the self-cleavage is 0.458. C4U A45G: the self-cleavage was determined as 0.862.

Consider C4U A45C, for which the self-cleavage was found to be 0.475.

As to G5C C41A, the self-cleavage came out at 0.0665. In the case of C4G C22G, the self-cleavage was 0. With C4U A71U the figure was 0.776.

On to C4A G35U, for which the self-cleavage amounted to 0.0369. The result for C4A G35C reads 0.086.

With C4U A77C, the self-cleavage was found to be 0.0978. In the case of C4U G76C, the self-cleavage worked out at 0.984. With C4U G76U the figure was 0.831; with C4G U46G, 0; with C4G U46C, 0. With C4U A42U the figure was 0.284; with C4A C26U, 0.415.

For C4A C26A, the self-cleavage turned out to be 0.332. C4U G5C: the self-cleavage was found to be 0.166. The result for C4A A78U reads 0.0437. With G5C A8U the figure was 0.0665; with G5C A8G, 0.

In the case of G5C G59A, the self-cleavage came to 0.344.

For the variant C4A C14U, the self-cleavage was 0.554.

Turning to C4A C14A, the self-cleavage is 0.119. For the variant G5U C41G, the self-cleavage was found to be 0.111. As for G5U C41U, the self-cleavage amounted to 0.415. With G5U C33A the figure was 0.898. The result for C4A G74C reads 0.0997; that for G5A C33G, 0.0615; that for C4G C49A, 0.346. For C4G G53U, the self-cleavage is 0.424.

For C4G G50C, the self-cleavage was 0.237. The result for C4G G50A reads 0.415; that for G5A C24G, 0.

Turning to C4A G81C, the self-cleavage came out at 0.

With C4A G81U, the self-cleavage stood at 0.128.

In the case of C4G G55A, the self-cleavage stood at 0.305. Regarding G5C G80U, the self-cleavage came out at 0.124.

Regarding G5C G10U, the self-cleavage was 0.0489. The result for G5C G10C reads 0; that for C4A C19G, 0.0339. The result for G5A C7G reads 0.0875; that for C4G U72C, 0.0426; that for G5C U69C, 0.396. With G5A U79C the figure was 0.0252. Regarding C4U G25C, the self-cleavage was 0.0773. With C4U C32U the figure was 0.525; with G5C A16C, 0.0875; with C4G A51G, 0.554. The result for G5A G17A reads 0.172; that for G5A C85U, 0.142. The result for C4G G76U reads 0.469. For the variant C4A G55U, the self-cleavage amounted to 0.237. With C4U A70G the figure was 0.541. For G5U A87G, the self-cleavage stood at 0.636.

As for G5U A87C, the self-cleavage worked out at 0.277. With G5A C62G the figure was 0.0594.

Take G5C U79G: the self-cleavage came out at 0. Consider C4G G29A, for which the self-cleavage was found to be 0. As to C4G G29U, the self-cleavage turned out to be 0.0292. For G5U C44U, the self-cleavage was found to be 0.369. With C4U C22A the figure was 0.188.

Turning to G5C C64G, the self-cleavage came to 0.0462.

In the case of G5C G74A, the self-cleavage was 0.0898. The result for G5A C30A reads 0.109. With G5A C30G the figure was 0.0426; with C4G C18A, 0.0287.

For the variant C4G C18G, the self-cleavage was found to be 0.0282. The result for C4U C64A reads 0.639. As to C4U C64U, the self-cleavage was found to be 0.695. The result for C4A C66U reads 0.361. With C3U U72G the figure was 0.453; with C3U U72C, 0.471. Turning to C4U U46A, the self-cleavage is 0.485. The result for C4U U46G reads 0.277. As to G5A G34A, the self-cleavage stood at 0.0978.

G5A G34C: the self-cleavage was found to be 0.101. With G5U C24U the figure was 0.115; with G5U C24G, 0; with C4A U65A, 0.594.

For the variant C4G G35U, the self-cleavage amounted to 0.0875. The result for G5A U46G reads 0.161; that for C4U C61G, 0.394. With C4A G68U the figure was 0.453; with G5C C18U, 0.142; with C4A G29U, 0. The result for C4A G38C reads 0. For C4U C66A, the self-cleavage came to 0.755. The result for C4U C66U reads 0.704; that for C4G A16C, 0.0755; that for G5C A77U, 0. With C4U C57A, the self-cleavage is 1.08. As to C4G U47G, the self-cleavage amounted to 0.175. The result for G5C U47A reads 0.158. With C4G G34A the figure was 0.161. With G5C C14A the figure was 0.0692; with G5C C14U, 0.506; with C4U U60A, 0.831. In the case of G5A C63U, the self-cleavage is 0.155.

C4G C32U: the self-cleavage is 0.086. The result for C4G C32G reads 0. With C4G C32A the figure was 0.0692; with G5C C36U, 0.0978. With C4A G31C the figure was 0.0739; with C4U A83C, 0.111.

With C4U G59U, the self-cleavage came out at 0.973. With C4U G59A the figure was 0.589; with C4A C62U, 0.248.
